This test has as its target low-density lipoprotein (LDL) receptor-related protein 1 (LRP1) (human) (UniProt Q07954). The experiment in a line: cell-based or functional assay.
Sequence of UniProt Q07954 (Q07954 20-4544): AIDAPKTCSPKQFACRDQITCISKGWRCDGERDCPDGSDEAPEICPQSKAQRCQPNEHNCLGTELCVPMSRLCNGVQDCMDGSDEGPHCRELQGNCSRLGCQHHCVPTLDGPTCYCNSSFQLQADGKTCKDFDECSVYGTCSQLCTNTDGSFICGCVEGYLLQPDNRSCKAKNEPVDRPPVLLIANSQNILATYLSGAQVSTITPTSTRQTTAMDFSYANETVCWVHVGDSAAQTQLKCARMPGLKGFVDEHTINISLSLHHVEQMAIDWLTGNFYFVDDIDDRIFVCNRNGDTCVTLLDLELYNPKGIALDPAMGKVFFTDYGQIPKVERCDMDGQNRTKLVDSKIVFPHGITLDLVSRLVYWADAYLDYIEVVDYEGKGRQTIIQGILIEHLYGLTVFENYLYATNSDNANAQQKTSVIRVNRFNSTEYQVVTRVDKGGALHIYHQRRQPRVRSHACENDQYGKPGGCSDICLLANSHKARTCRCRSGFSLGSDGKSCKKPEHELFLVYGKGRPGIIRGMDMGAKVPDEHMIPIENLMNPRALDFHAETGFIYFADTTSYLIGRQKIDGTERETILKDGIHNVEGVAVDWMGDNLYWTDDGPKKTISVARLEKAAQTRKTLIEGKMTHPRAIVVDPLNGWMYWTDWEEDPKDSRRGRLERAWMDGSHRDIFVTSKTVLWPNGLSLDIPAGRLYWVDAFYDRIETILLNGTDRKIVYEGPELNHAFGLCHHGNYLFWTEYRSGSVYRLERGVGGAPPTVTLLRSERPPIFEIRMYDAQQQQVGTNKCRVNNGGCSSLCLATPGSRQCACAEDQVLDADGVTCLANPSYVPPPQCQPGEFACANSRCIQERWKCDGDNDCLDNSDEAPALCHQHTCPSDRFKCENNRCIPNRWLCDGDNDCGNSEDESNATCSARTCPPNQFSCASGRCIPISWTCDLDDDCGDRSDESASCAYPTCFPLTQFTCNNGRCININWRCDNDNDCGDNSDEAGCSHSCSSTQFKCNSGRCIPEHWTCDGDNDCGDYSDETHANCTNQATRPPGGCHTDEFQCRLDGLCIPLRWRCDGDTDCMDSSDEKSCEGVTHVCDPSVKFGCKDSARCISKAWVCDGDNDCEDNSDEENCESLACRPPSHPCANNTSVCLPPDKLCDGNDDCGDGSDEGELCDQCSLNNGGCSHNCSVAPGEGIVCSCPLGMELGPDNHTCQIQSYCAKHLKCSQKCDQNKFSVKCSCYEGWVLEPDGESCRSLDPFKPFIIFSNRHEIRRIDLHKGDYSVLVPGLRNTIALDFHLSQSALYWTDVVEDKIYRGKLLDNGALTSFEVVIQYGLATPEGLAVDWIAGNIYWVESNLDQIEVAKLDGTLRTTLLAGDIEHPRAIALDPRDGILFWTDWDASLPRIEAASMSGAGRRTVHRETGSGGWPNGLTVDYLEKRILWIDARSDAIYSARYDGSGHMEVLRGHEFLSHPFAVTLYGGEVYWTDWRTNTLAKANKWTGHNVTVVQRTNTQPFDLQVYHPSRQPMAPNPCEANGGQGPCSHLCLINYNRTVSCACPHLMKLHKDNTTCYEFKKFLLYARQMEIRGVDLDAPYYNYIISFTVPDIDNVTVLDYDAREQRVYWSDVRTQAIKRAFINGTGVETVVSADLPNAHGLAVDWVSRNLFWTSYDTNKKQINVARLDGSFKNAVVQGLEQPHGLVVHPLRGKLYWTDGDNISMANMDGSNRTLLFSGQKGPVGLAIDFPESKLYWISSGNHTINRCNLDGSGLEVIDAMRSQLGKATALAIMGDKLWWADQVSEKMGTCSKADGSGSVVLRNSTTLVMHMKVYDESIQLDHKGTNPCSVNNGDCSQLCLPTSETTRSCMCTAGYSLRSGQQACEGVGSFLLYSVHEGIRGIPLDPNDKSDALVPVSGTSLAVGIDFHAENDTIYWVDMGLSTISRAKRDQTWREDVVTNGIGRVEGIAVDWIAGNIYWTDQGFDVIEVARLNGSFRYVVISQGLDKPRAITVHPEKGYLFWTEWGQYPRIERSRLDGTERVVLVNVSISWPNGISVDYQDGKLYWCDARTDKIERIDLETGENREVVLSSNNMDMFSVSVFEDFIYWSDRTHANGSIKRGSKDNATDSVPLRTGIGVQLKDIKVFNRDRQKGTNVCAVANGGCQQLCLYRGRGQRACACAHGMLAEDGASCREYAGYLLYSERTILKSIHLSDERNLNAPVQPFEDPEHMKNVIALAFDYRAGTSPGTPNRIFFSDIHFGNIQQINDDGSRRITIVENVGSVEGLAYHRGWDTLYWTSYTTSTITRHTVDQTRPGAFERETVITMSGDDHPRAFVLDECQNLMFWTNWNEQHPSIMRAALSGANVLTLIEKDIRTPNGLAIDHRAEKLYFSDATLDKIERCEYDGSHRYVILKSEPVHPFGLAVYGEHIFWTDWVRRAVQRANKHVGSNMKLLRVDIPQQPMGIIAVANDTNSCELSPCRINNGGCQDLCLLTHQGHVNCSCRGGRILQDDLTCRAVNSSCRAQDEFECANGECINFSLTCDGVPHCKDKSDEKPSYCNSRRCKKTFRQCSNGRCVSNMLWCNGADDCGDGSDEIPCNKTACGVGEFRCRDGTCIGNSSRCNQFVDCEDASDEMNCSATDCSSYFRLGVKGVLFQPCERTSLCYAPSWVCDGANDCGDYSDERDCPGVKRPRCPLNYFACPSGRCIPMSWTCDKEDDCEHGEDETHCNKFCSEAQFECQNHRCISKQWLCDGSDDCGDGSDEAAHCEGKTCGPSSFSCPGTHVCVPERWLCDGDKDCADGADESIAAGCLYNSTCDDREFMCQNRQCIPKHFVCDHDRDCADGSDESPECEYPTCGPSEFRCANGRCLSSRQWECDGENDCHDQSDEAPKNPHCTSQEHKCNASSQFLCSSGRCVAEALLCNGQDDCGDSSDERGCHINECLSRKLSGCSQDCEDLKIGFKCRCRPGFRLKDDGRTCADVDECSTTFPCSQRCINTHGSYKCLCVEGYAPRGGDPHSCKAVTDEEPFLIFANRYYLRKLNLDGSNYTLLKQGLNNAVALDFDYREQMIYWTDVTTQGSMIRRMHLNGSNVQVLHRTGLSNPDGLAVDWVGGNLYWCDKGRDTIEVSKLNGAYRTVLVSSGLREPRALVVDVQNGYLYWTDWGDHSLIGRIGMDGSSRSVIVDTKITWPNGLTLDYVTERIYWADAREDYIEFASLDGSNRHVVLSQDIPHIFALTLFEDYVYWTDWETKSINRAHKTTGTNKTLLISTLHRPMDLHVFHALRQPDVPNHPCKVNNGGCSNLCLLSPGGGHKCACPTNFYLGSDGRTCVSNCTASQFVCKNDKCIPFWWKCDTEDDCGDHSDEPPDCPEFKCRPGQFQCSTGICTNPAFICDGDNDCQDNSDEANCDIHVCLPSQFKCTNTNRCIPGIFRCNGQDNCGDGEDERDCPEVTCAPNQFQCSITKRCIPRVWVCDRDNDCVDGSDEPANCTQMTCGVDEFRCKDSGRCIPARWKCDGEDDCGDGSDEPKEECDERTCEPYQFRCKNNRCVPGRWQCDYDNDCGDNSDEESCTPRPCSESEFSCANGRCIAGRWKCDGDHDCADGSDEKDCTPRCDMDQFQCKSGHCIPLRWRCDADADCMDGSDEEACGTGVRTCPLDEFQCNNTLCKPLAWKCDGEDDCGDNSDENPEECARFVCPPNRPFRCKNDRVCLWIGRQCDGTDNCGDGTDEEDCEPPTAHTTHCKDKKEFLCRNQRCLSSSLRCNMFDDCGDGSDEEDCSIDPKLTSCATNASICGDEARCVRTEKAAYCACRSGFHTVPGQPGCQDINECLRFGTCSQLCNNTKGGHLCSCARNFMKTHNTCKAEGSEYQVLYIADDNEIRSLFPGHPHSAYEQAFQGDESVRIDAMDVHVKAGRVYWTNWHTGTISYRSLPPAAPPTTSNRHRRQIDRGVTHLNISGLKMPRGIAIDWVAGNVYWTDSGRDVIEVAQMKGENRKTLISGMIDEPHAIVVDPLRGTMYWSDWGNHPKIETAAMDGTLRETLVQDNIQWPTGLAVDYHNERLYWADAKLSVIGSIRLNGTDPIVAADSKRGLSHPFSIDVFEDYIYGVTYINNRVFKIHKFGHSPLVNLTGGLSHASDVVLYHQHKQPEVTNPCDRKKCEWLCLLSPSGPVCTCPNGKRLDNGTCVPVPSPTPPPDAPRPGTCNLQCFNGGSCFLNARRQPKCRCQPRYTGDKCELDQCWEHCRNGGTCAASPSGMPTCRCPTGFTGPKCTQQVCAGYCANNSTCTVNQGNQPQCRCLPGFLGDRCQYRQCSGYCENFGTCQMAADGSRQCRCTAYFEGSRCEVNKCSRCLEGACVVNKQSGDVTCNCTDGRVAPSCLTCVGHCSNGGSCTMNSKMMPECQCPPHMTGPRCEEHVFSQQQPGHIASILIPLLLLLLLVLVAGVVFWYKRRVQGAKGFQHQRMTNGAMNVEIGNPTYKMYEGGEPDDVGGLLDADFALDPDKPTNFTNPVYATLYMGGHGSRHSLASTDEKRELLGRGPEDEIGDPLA

On to “receptor-associated protein (RAP) (from UniProt P30533 35-357) (ligand)”, for which the inhibition of uptake of K18 tau in WT H4 cells (IC50) was 9.6 nM and the inhibition of uptake of full-length tau in WT H4 cells (IC50) is 4.9 nM.

The values above are taken from patent publication US20240247055A1.
